Source: US10323078B2, “Isolated peptides and fragments thereof from fibrinogen for use as drugs, particularly in skin inflammatory diseases” (Universite Paris Descartes, priority 2015, dated 2019)

What was measured:
HaCaT cells = assay: H2O2 production by P. acnes-stimulated HaCaT (spectrofluorimetry, H2-DCFDA); format: cell-based, human; details: bacteria first pretreated, 0.87 to 7 μM
Description: (§1) For experiences of stimulation with P. acnes, cells were incubated with the P. acnes suspension adjusted at the appropriate concentration, pre-treated for 1 h at 37° C. or not with fibrinogen recombinant peptides Fg1 and Fg2 at the concentrations 0.87, 1.75, 3.5 or 7 μM for the desired period of time at 37° C. in 5% CO2.
All cells lines (5·10^4 to 10^5 cells/well) were seeded in 96-well plates (Corning Costar, Brumath, France) and treated as previously described. After stimulation, cells were washed three times in PBS and incubated with 100 μl per wells of 5 μM DHE (for determination of O2^●−) or 5 μM H2-DCFDA (for determination of H2O2) for 30 min as described previously and fluorescence intensity was recorded every hour over a period of 5 h. Fluorescence excitation/emission maxima were for DHE: 480/610 nm and for H2-DCFDA: 507/525 nm. At the end of the experiment, the number of adherent cells was evaluated by the crystal violet assay as described below. O2^●−, and H2O2 were assayed by spectrofluorimetry on a Fusion spectrofluorimeter (PackardBell, Paris, France). Levels of ROS were calculated in each sample as follows: reactive oxygen species rate (arbitrary units/min/10^6 cells)=(fluorescence intensity [arbitrary units] at T5h—fluorescence intensity [arbitrary units] at To/300 minutes/number of adherent cells as measured by the crystal violet assay, and were expressed as arbitrary unit (A.U.).
(§2) To assess the efficacy of Fg1 recombinant peptide, the production of O2^∘− and H2O2 by HaCaT cells NHDK, THP-1, MRC5 and HDF stimulated by pretreated P. acnes strains 6919, RON and PIE was measured. The amount of ROS produced was compared to that produced by the stimulated cells with untreated bacteria. Production baseline was obtained by measuring ROS on unstimulated cells. The production of IL-1ß, IL-8, IL-12 and TNF-α was also measured in all conditions cited above. The measurement of the production of ROS is performed by spectrofluorimetry in the presence of specific fluorochromes directly on the monolayer cell. Measurement of cytokine production was performed in parallel on the cell culture supernatant.
Two sets of experiments were implemented: 1) The cells were stimulated (18 h at 37° C.) by P. acnes strains previously pretreated with Fg1 and Fg2 peptides at the final concentrations ranging from 0.87 to 7 μM for 1 h at 37° C.; and 2) The cells were pretreated first with Fg1 and Fg2 peptides at the final concentrations ranging from 0.87 to 7 μM for 24 h at 37° C. and stimulated (18 h at 37° C.) by P. acnes strains.
To assess the efficacy of the small Fg1-related peptide, the production of H2O2 by several cell lines (HaCaT, NHDK, THP-1, MRC5 and HDF) stimulated by three P. acnes strains 6919, RON and PIE was measured, in presence or not with the small peptides. The amount of H2O2 produced is compared to that produced by the stimulated cells with untreated bacteria. Production baseline is obtained by measuring H2O2 on unstimulated cells. The measurement of the production of H2O2 is performed by spectrofluorimetry in the presence of specific fluorochromes directly on the monolayer cell.
Two sets of experiments have been implemented: • I) The cells are stimulated (18 h at 37° C.) by P. acnes strains previously pretreated with Fg1.1, Fg1.2, Fg1.3, Fg1.4, and Fg1.5 small peptides at the final concentrations ranging from 2.5 to 20 μM for 1 h at 37° C.; • II) The cells are pretreated first with the five small peptides at the final concentrations ranging from 2.5 to 20 μM for 24 h at 37° C. and stimulated (18 h at 37° C.) by P. acnes strains.

NHDK cells = assay: IL-1β production by P. acnes-stimulated NHDK (ELISA); format: cell-based, human; details: P. acnes 6919, set I, bacteria first pretreated, 0.87 to 7 μM
Description: as §1
Human IL-1ß, IL-8, IL-12, hBD-2, and TNF-α protein concentration was measured in the supernatants of stimulated cells using various ELISA Set kits (Ready-Set-Go kit from eBioscience for acne experiments, and for psoriasis experiments the Duo set IL-8 kit from R&D Systems and the BD-2 Human Development (hBD-2) from Peprotech) according to the manufacturer's instructions. We used serial dilutions of recombinant human IL-1ß, IL-8, IL-12 and TNF-α for standard curve. The optical density was determined at 450 nm at a wavelength correction of 540 nm.
as §2, with “The measurement of the production of ROS is performed by spectrofluorimetry in the presence of specific fluorochromes directly on the monolayer cell. Measurement of cytokine production was performed in parallel on the cell culture supernatant.” left out

B1: MKRMVSWSFHKLKTMKHLLLLLLCVFLVKSQGVNDNEEGFFSARGHRPLDKKREEAPSLRPAPPPISGGGYRARPAKAAATQKKVERKAPDAGGCLHADPDLGVLC (protein)
chain: MKRMVSWSFHKLKTMKHLLLLLLCVFLVKSQGVNDNEEGFFSARGHRPLDKKREEAPSLRPAPPPISGGGRARPAKAAATQKKVERKAPDAGGCLHADPDLGVLCMKRMVSWSFHKLKTMKHLLLLLLCVFLVKSQGVNDNEEGFFSARGHRPLDKKREEAPSLRPAPPPISGGGYRARPAKAAATQKKVERKAPDAGGCLHADPDLGVLC
modifications: GST fusion; fragment Fg1
notes: fragment of Bß chain of human fibrinogen having 106 amino acids; recombinant GST-fused peptide expressed in E. coli
pos: Inhibition of Hydrogen peroxide (H2O2) production (HaCaT cells; P. acnes 6919, set I) | Inhibition of Hydrogen peroxide (H2O2) production (HaCaT cells; P. acnes PIE, set I) | Inhibition of Hydrogen peroxide (H2O2) production (HaCaT cells; P. acnes RON, set I) | Inhibition of Interleukine 1 beta (IL-1β) production (NHDK cells)
